Assay results taken from the supplement of paper PMC9112550, “Optimization of the antimicrobial peptide Bac7 by deep mutational scanning” (BMC Biology, 2022).

tested on: Escherichia coli TOP10; experiment: shrunken log2 fold change of peptide-encoding DNA abundance (4.5 h post-induction vs induction); higher = less antimicrobial activity (less host growth inhibition); settings: time post-induction: 4.5 h; library: site-saturation at positions 5, 18, 19, 20
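Note: peptides expressed intracellularly from a pBAD plasmid library in pooled LB shake-flask culture, induced with 0.3% L-arabinose, DNA abundance read by NGS, three biological replicates, DESeq2 with apeglm shrinkage.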

Sequence	shrunken log2 fold change
RRIRIRPPRLPRPRPRPMELPRP	-0.000689
RRIRPRPPRLPRPRPRPHIGPRP	0.0387
RRIRDRPPRLPRPRPRPPLHPRP	0.177
RRIRWRPPRLPRPRPRPYPVPRP	3.67
RRIRIRPPRLPRPRPRPCYMPRP	-0.49
RRIRQRPPRLPRPRPRPYDSPRP	-0.00804
RRIRHRPPRLPRPRPRPDDSPRP	-0.01
RRIRSRPPRLPRPRPRPNFAPRP	0.245
RRIRERPPRLPRPRPRPVAFPRP	-0.0756
RRIRWRPPRLPRPRPRPDCNPRP	-0.0173
RRIRERPPRLPRPRPRPGFEPRP	-0.1
RRIRMRPPRLPRPRPRPIVQPRP	-0.0131
RRIRKRPPRLPRPRPRPEHPPRP	0.822
RRIRPRPPRLPRPRPRPLPQPRP	0.286
RRIRNRPPRLPRPRPRPQDRPRP	0.0155
RRIRNRPPRLPRPRPRPHFHPRP	-0.529
RRIRQRPPRLPRPRPRPTCFPRP	0.132
RRIRPRPPRLPRPRPRPEMMPRP	0.00381
RRIRLRPPRLPRPRPRPLELPRP	-0.0406
RRIRMRPPRLPRPRPRPNWLPRP	0.286
RRIRERPPRLPRPRPRPQNFPRP	-0.486
RRIRIRPPRLPRPRPRPWLTPRP	-0.096

Sequence	shrunken log2 fold change
RRIRVRPPRLPRPRPRPLVVPRP	-0.21
RRIRYRPPRLPRPRPRPQNCPRP	-0.0075
RRIRFRPPRLPRPRPRPWKHPRP	-0.587
RRIRNRPPRLPRPRPRPPITPRP	0.187
RRIRRRPPRLPRPRPRPPLSPRP	0.996
RRIRSRPPRLPRPRPRPYMIPRP	-1.11
RRIRDRPPRLPRPRPRPPKTPRP	0.257
RRIRARPPRLPRPRPRPMCPPRP	0.0408
RRIRSRPPRLPRPRPRPHSNPRP	-0.358
RRIRHRPPRLPRPRPRPCLPPRP	-0.041
RRIRERPPRLPRPRPRPPLEPRP	0.161
RRIRDRPPRLPRPRPRPTTQPRP	0.831
RRIRHRPPRLPRPRPRPTRRPRP	0.271
RRIRCRPPRLPRPRPRPSGFPRP	-0.218
RRIRVRPPRLPRPRPRPGVHPRP	0.107
RRIRWRPPRLPRPRPRPWTAPRP	0.306
RRIRQRPPRLPRPRPRPALQPRP	0.145
RRIRNRPPRLPRPRPRPCTRPRP	-0.184
RRIRTRPPRLPRPRPRPQGFPRP	0.0424
RRIRCRPPRLPRPRPRPNHEPRP	-0.15
RRIRKRPPRLPRPRPRPPWQPRP	0.236
RRIRKRPPRLPRPRPRPYSAPRP	-0.134

Sequence	shrunken log2 fold change
RRIRPRPPRLPRPRPRPMMGPRP	0.0538
RRIRLRPPRLPRPRPRPVNHPRP	0.197
RRIRLRPPRLPRPRPRPWWEPRP	0.176
RRIRGRPPRLPRPRPRPQHEPRP	0.0159
RRIRRRPPRLPRPRPRPQWTPRP	0.31
RRIRPRPPRLPRPRPRPRYCPRP	-0.191
RRIRLRPPRLPRPRPRPSMTPRP	1.72
RRIRTRPPRLPRPRPRPGCPPRP	0.086
RRIRHRPPRLPRPRPRPPWKPRP	0.174
RRIRNRPPRLPRPRPRPAAGPRP	0.698
RRIRVRPPRLPRPRPRPECSPRP	-0.091
RRIRMRPPRLPRPRPRPRERPRP	0.623
RRIRKRPPRLPRPRPRPDAIPRP	0.889
RRIRGRPPRLPRPRPRPSEHPRP	0.149
RRIRTRPPRLPRPRPRPCPHPRP	-0.0429
RRIRSRPPRLPRPRPRPPYWPRP	0.3
RRIRGRPPRLPRPRPRPNSNPRP	0.0841
RRIRARPPRLPRPRPRPMGGPRP	0.0776
RRIRWRPPRLPRPRPRPSDKPRP	-0.246
RRIRTRPPRLPRPRPRPLSGPRP	-0.0581
RRIRGRPPRLPRPRPRPLLAPRP	2.21
RRIRFRPPRLPRPRPRPNMDPRP	1.48

Sequence	shrunken log2 fold change
RRIRPRPPRLPRPRPRPKSMPRP	-0.37
RRIRRRPPRLPRPRPRPACQPRP	0.835
RRIRDRPPRLPRPRPRPGFGPRP	0.264
RRIRGRPPRLPRPRPRPPMTPRP	0.895
RRIRVRPPRLPRPRPRPRLKPRP	3.13
RRIRFRPPRLPRPRPRPCIEPRP	-0.422
RRIRWRPPRLPRPRPRPRSHPRP	0.273
RRIRARPPRLPRPRPRPKHHPRP	-0.00948
RRIRRRPPRLPRPRPRPEPCPRP	0.388
RRIRIRPPRLPRPRPRPCRRPRP	-0.23
RRIRCRPPRLPRPRPRPSGNPRP	-0.598
RRIRVRPPRLPRPRPRPDAGPRP	0.13
RRIRARPPRLPRPRPRPVFAPRP	0.561
RRIRDRPPRLPRPRPRPWLCPRP	-0.0939
RRIRWRPPRLPRPRPRPLVWPRP	0.426
RRIRWRPPRLPRPRPRPGRIPRP	0.298
RRIRERPPRLPRPRPRPYVKPRP	0.04
RRIRQRPPRLPRPRPRPTQGPRP	2.34
RRIRNRPPRLPRPRPRPCRDPRP	-0.0123
RRIRCRPPRLPRPRPRPVDIPRP	-0.241
RRIRRRPPRLPRPRPRPGPTPRP	0.678
RRIRWRPPRLPRPRPRPNMEPRP	0.0936

Sequence	shrunken log2 fold change
RRIRPRPPRLPRPRPRPNSYPRP	-0.464
RRIRYRPPRLPRPRPRPMQNPRP	-0.488
RRIRTRPPRLPRPRPRPMDWPRP	-0.05
RRIRKRPPRLPRPRPRPRGFPRP	0.18
RRIRTRPPRLPRPRPRPCWLPRP	-0.0724
RRIRWRPPRLPRPRPRPFKCPRP	-0.127
RRIRCRPPRLPRPRPRPKPHPRP	0.398
RRIRERPPRLPRPRPRPQNMPRP	-1.05
RRIRLRPPRLPRPRPRPSIKPRP	-0.684
RRIRARPPRLPRPRPRPQNNPRP	-0.29
RRIRTRPPRLPRPRPRPAFRPRP	-0.125
RRIRLRPPRLPRPRPRPKSCPRP	0.0755
RRIRERPPRLPRPRPRPYGVPRP	-0.128
RRIRCRPPRLPRPRPRPGSIPRP	-0.311
RRIRWRPPRLPRPRPRPRPRPRP	0.974
RRIRTRPPRLPRPRPRPGNWPRP	0.275
RRIRGRPPRLPRPRPRPPYCPRP	0.204
RRIRARPPRLPRPRPRPWKRPRP	0.125
RRIRCRPPRLPRPRPRPDSDPRP	-0.0612
RRIRSRPPRLPRPRPRPRIWPRP	0.183
RRIRKRPPRLPRPRPRPAKCPRP	0.174
